Assay results from paper PMC10397247.
Where two headings read alike, the source gives them in different places.

Key:
[1] = target: T1, zCON9_B; assay: two-hybrid library CCmax; conditions: mean of both orientations;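 further: natural log of median RNA to DNA barcode read ratio; higher means stronger binding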
T1 chain: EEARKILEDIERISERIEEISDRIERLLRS

[2] = target: T2, P7-AA; assay: two-hybrid library CCmax; conditions: mean of both orientations;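 further: natural log of median RNA to DNA barcode read ratio; higher means stronger binding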
T2 chain: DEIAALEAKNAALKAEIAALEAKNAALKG

[3] = target: T3, P3-AA; assay: two-hybrid library CCmax; conditions: mean of both orientations;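 further: natural log of median RNA to DNA barcode read ratio; higher means stronger binding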
T3 chain: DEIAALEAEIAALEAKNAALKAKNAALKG

[4] = target: T4, P12-AA; assay: two-hybrid library CCmax;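 further: natural log of median RNA to DNA barcode read ratio; higher means stronger binding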
T4 chain: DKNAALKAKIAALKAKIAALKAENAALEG

[5] = target: T5, zCON9_A; assay: two-hybrid library CCmax
T5 chain: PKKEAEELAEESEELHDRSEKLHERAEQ

[6] = target: T6, P9-AA; assay: two-hybrid library CCmax; conditions: mean of both orientations
T6 chain: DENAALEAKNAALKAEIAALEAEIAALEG

[7] = target: T7, P2-AA; assay: two-hybrid library CCmax
T7 chain: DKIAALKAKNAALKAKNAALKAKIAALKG

[8] = target: T8, P4-AA; assay: two-hybrid library CCmax; conditions: mean of both orientations
T8 chain: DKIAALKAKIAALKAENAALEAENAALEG

[9] = target: T9, zCON9_D; assay: two-hybrid library CCmax; conditions: mean of both orientations
T9 chain: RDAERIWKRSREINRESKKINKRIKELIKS

[10] = target: T10, P8-AA; assay: two-hybrid library CCmax; conditions: mean of both orientations
T10 chain: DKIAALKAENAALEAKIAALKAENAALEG

[11] = target: T11, 4H3920-AA; assay: two-hybrid library CCmax; conditions: mean of both orientations
T11 chain: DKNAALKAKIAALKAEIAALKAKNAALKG

[12] = target: T12, 4H497-AA; assay: two-hybrid library CCmax; conditions: mean of both orientations
T12 chain: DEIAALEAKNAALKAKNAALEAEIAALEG

[13] = target: T13, 4H3121-AA; assay: two-hybrid library CCmax; conditions: mean of both orientations
T13 chain: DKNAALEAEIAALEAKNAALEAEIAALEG

[14] = target: T14, 4H3709-AA; assay: two-hybrid library CCmax; conditions: mean of both orientations
T14 chain: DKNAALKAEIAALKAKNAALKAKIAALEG

[15] = target: T15, 4H428-AA; assay: two-hybrid library CCmax; conditions: mean of both orientations
T15 chain: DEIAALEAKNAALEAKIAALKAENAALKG

[16] = target: T16, 4H675-AA; assay: two-hybrid library CCmax; conditions: mean of both orientations
T16 chain: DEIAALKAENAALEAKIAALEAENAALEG

[17] = target: T17, 4H3029-AA; assay: two-hybrid library CCmax; conditions: mean of both orientations
T17 chain: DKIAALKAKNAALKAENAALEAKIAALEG

[18] = target: T18, 4H3102-AA; assay: two-hybrid library CCmax; conditions: mean of both orientations
T18 chain: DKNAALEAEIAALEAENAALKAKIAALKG

[19] = target: T19, 4H3628-AA; assay: two-hybrid library CCmax; conditions: mean of both orientations
T19 chain: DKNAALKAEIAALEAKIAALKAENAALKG

[20] = target: T20, 4H3066-AA; assay: two-hybrid library CCmax; conditions: mean of both orientations
T20 chain: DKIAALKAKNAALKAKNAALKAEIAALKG

[21] = target: T21, 4H2991-AA; assay: two-hybrid library CCmax; conditions: mean of both orientations
T21 chain: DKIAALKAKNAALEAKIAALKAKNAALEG

[22] = target: T22, 4H2713-AA; assay: two-hybrid library CCmax
T22 chain: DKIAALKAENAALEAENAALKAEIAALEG

[23] = target: T23, 4H2742-AA; assay: two-hybrid library CCmax; conditions: mean of both orientations
T23 chain: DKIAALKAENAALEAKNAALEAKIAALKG

[24] = target: T24, 4H3666-AA; assay: two-hybrid library CCmax; conditions: mean of both orientations
T24 chain: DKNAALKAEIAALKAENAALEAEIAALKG

[25] = target: T25, 4H391-AA; assay: two-hybrid library CCmax; conditions: mean of both orientations
T25 chain: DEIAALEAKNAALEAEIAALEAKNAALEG

[26] = target: T26, 4H3417-AA; assay: two-hybrid library CCmax; conditions: mean of both orientations
T26 chain: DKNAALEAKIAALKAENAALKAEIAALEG

[27] = target: T27, 4H656-AA; assay: two-hybrid library CCmax; conditions: mean of both orientations
T27 chain: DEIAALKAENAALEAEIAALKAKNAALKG

[28] = target: T28, 4H3446-AA; assay: two-hybrid library CCmax; conditions: mean of both orientations
T28 chain: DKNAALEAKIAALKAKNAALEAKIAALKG

[29] = target: T29, 4H2948-AA; assay: two-hybrid library CCmax; conditions: mean of both orientations
T29 chain: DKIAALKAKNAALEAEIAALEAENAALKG

[30] = target: T30, 4H3591-AA; assay: two-hybrid library CCmax; conditions: mean of both orientations
T30 chain: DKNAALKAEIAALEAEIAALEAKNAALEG

[31] = target: T31, 4H478-AA; assay: two-hybrid library CCmax; conditions: mean of both orientations
T31 chain: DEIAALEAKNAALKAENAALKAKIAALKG

[32] = target: T32, 4H3939-AA; assay: two-hybrid library CCmax; conditions: mean of both orientations
T32 chain: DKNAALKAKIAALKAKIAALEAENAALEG

[33] = target: T33, 4H971-AA; assay: two-hybrid library CCmax; conditions: mean of both orientations
T33 chain: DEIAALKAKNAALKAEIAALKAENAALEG

[34] = target: T34, 4H850-bN; assay: two-hybrid library CCNG1
T34 chain: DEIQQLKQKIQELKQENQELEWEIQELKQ

[35] = target: T35, 4H3628-bN; assay: two-hybrid library CCNG1
T35 chain: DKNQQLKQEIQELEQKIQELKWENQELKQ

[36] = target: T36, 4H3974-bN; assay: two-hybrid library CCNG1
T36 chain: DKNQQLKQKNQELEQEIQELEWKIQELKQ

[37] = target: T37, 4H591-bN; assay: two-hybrid library CCNG1
T37 chain: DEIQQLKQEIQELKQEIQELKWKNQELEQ

[38] = target: T38, 4H3926-bN; assay: two-hybrid library CCNG1
T38 chain: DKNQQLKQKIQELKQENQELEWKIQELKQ

[39] = target: T39, 4H3858-bN; assay: two-hybrid library CCNG1
T39 chain: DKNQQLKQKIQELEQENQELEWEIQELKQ

[40] = target: T40, O9-bP; assay: two-hybrid library CCNG1
T40 chain: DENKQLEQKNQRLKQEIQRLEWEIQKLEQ

[41] = target: T41, 4H687-bN; assay: two-hybrid library CCNG1
T41 chain: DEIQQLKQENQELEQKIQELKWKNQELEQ

[42] = target: T42, 4H3817-bN; assay: two-hybrid library CCNG1
T42 chain: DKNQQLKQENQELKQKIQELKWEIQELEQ

[43] = target: T43, 4H906-bN; assay: two-hybrid library CCNG1
T43 chain: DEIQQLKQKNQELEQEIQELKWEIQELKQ

[44] = target: T44, 4H570-bN; assay: two-hybrid library CCNG1
T44 chain: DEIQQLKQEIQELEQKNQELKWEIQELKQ

[45] = target: T45, 4H626-bN; assay: two-hybrid library CCNG1
T45 chain: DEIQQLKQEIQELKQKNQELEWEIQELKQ

Binder: DKNAALKAKIAALKAKIAALKAENAALEG [P12-AA]
- interaction score [1]: 0.333
- interaction score [2]: -1.45
- interaction score [3]: 1.42
- interaction score [4]: -1.64
- interaction score [5]: -1.73
- interaction score [6]: 0.219
- interaction score ([7]; mean of both orientations): -1.74
- interaction score [8]: -1.68
- interaction score [9]: -2.06
- interaction score [10]: -1.95

Binder: DKIAALKAENAALEAENAALKAEIAALEG [4H2713-AA]
- interaction score [11]: -1.61
- interaction score [12]: 0.0354
- interaction score [13]: -1.64
- interaction score [14]: -1.95
- interaction score [15]: -1.87
- interaction score [16]: -1.83
- interaction score [17]: 1.75
- interaction score [18]: -0.638
- interaction score [19]: -1.22
- interaction score [20]: 1.76
- interaction score [21]: -1.79
- interaction score [22]: 0.691
- interaction score [23]: -0.508
- interaction score [24]: -1.39
- interaction score [25]: -1.91
- interaction score [26]: -1.19
- interaction score [27]: -1.66
- interaction score [28]: -1.15
- interaction score [29]: -1.84
- interaction score [30]: -1.25
- interaction score [31]: 2.27
- interaction score [32]: -1.59
- interaction score [33]: -1.57

Binder: DKNQQLKQEIQELEQKIQELKWENQELKQ [4H3628-bN]
- interaction score [34]: -1.18
- interaction score [35]: -0.36
- interaction score [36]: -0.134
- interaction score [37]: -0.603
- interaction score [38]: -0.307
- interaction score [39]: -2.07
- interaction score [40]: -0.345
- interaction score [41]: -0.529
- interaction score [42]: -1.03
- interaction score [43]: 0.069
- interaction score [44]: -1.33
- interaction score [45]: -2.08

Binder: DKIAALKAKNAALKAKNAALKAKIAALKG [P2-AA]
- interaction score [1]: 1.28
- interaction score [2]: -1.47
- interaction score [3]: -1.6
- interaction score ([5]; mean of both orientations): -1.98
- interaction score [6]: -0.716
- interaction score [7]: -0.878
- interaction score [8]: -0.357
- interaction score [9]: -2.05
- interaction score [10]: -1.37
